From article PMC3182529 come the findings set out here.

The target in the assay is 14-3-3ζ (UniProt P63104). Kind of assay: fluorescence polarisation.
Sequence of 14-3-3ζ (P63104 whole entry): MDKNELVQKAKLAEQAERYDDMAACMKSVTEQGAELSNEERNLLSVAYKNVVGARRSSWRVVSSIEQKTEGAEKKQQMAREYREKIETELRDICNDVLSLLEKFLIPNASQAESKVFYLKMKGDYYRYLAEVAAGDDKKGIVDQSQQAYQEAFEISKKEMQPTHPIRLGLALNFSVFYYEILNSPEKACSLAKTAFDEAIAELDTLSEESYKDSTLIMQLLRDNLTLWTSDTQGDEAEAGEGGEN

For orientation: Kd means the constant that tells how readily two partners part at equilibrium. As for “H3S28ph (25–38) (from UniProt P68431 26-39) (peptide)”, the dissociation constant Kd was found to be 18.7 µM.

As to “H3K27acS28ph (25–38) (from UniProt P68431 26-39) (peptide)”, the Kd stood at 34.9 µM. “H3S28phP30A (25–38) (from UniProt P68431 26-39) (peptide)” returned a Kd of 162 µM.
